# Legend:
# [1] = biological target: T1, Biotinylated recombinant mouse CD8α (Sino biological #50389-M08H-B) (mouse, UniProt P01731 28-196, biotinylated (site not stated)); assay: dose-response ELISA, rat IgG2b format
# Experimental: (§1) […] of streptavidin were coated on Nunc Maxisorp 96-well plates (ThermoFisher #442404) at 100 μL/well and incubated 1 hour at room temperature. Biotinylated human CD8α (Fisher Scientific #17196181) and mouse CD8α (Sino biological #50389-M08H-B) were added at 0.5 μg/mL in 100 μL/well and incubated overnight at 4° C. Human CD4 (Sino biological #10400-H08H) was coated passively at 1 μg/mL in 100 μL/well and incubated overnight at 4° C. Plates were then blocked using 200 μL of PBS containing 4% skimmed milk for 1 hour at room temperature.
# (§2) The three antibody clones (in both human IgG1 lambda and rat IgG2b kappa formats) were diluted in milk-PBS and tested at different concentrations (75, 25, 8.3, 2.8, 0.93, 0.31, 0.103, 0.034, 0.011, 0.0038, 0.0013 and 0.00042 μg/mL). 100 μL/well were incubated 1 hour at room temperature.
# (§3) TMB ((3,3′,5,5′ tetramethylbenzidine) Thermo Scientific #12617087) was added for a 3-minute incubation. Reaction was stopped with H₂SO₄ and absorbance at 450 nm was read on a microplate reader (Pherastar FS, BMG Labtech).
# [2] = biological target: T2, Recombinant human CD4 (Sino biological #10400-H08H) (human, UniProt P01730 26-390); assay: dose-response ELISA on coated human CD4, rat IgG2b format
# Experimental: as §1, §2, §3
# [3] = biological target: T3, Biotinylated recombinant human CD8α (Fisher Scientific #17196181) (human, UniProt P01732 22-182, biotinylated (site not stated)); assay: dose-response ELISA on biotinylated human CD8α captured on streptavidin, rat IgG2b format
# T3 construct: Bought protein; also called hCD8α; recombinant human CD8α protein
# T3 sequence (P01732 22-182 limits assumed): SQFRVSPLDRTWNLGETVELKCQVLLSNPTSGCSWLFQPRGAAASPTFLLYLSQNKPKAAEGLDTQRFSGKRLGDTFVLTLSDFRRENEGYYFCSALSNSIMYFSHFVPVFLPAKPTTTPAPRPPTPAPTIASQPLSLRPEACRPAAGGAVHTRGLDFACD
# Experimental: as §1, §2, §3
# [4] = biological target: T1, Biotinylated recombinant mouse CD8α …; assay: dose-response ELISA, human IgG1 format
# Experimental: as §1, §2, §3
# [5] = biological target: T2, Recombinant human CD4 (Sino biological …); assay: dose-response ELISA on coated human CD4, human IgG1 format
# Experimental: as §1, §2, §3
# [6] = biological target: T3, Biotinylated recombinant human CD8α …; assay: dose-response ELISA on biotinylated human CD8α captured on streptavidin, human IgG1 format
# Experimental: as §1, §2, §3
# T1 sequence (P01731 28-196 limits assumed, stated change not applied): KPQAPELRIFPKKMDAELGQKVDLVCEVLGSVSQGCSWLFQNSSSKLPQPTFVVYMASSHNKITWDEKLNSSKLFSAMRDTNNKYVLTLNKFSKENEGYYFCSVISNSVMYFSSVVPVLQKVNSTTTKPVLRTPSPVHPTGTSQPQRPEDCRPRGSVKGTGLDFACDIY
Binder,EC50 [3] [nM],EC50 [6] [nM],binding result [1],binding result [2],binding result [4],binding result [5]
"MP08-R3-C11 in the rat IgG2b kappa format (antibody, V domains shown, Same VH and VL cloned into a rat IgG2b kappa format; also called MP08-R3-C11 rat IgG2b) VH: EVQLVESGGSLVKPGGSLRLSCAASGFTFSNYDMNWVRQAPGKGLEWISDISGSSSYIDYADFVKGRFTISRDNAKNSLYLQMNSLRAEDTAVYYCVRSSYYSGSGMDVWGRGTLVTVSS VL: QSVLTQPASVSGSPGQSITISCAGTSSDVGGGSSVSWYQQHPGKAPKLMIYQDSYRPSGVSNRFSGSKSGNTASLTISGLQAEDEADYYCSSYTYYSTRVFGGGTKLAVL",0.48,–,no binding (tested: 75 µg/mL (highest concentration tested)),no binding (tested: 75 µg/mL (highest concentration tested)),–,–
"MP09-R3-D03 in the human IgG1 lambda format (antibody, V domains shown, Whole human IgG1 lambda made in ExpiCHO cells; also called hMP09-R3-D03; MP09-R3-D03 human IgG1 clone) VH: EVQLVESGGSLVKPGGSLRLSCAASGFTFSNYYMNWVRQAPGKGLEWISSISGSSRYIYYADFVKGRFTISRDNAKNSLYLQMNSLRAEDTAVYYCVRSSGSYFGNAMDVWGRGTLVTVSS VL: QSVLTQPASVSGSPGQSITISCAGTSSDVGGYYSVSWYQQHPGKAPKLMIYYDSSRPSGVSNRFSGSKSGNTASLTISGLQAEDEADYYCSSDTSYSTRVFGGGTKLAVL",–,2,–,–,no binding (tested: 75 µg/mL (highest concentration tested)),no binding (tested: 75 µg/mL (highest concentration tested))
"MP08-R3-C11 in the human IgG1 lambda format (antibody, V domains shown, Whole human IgG1 lambda made in ExpiCHO cells; also called hMP08-R3-C11; MP08-R3-C11 human IgG1 clone) VH: EVQLVESGGSLVKPGGSLRLSCAASGFTFSNYDMNWVRQAPGKGLEWISDISGSSSYIDYADFVKGRFTISRDNAKNSLYLQMNSLRAEDTAVYYCVRSSYYSGSGMDVWGRGTLVTVSS VL: QSVLTQPASVSGSPGQSITISCAGTSSDVGGGSSVSWYQQHPGKAPKLMIYQDSYRPSGVSNRFSGSKSGNTASLTISGLQAEDEADYYCSSYTYYSTRVFGGGTKLAVL",–,2.4,–,–,no binding (tested: 75 µg/mL (highest concentration tested)),no binding (tested: 75 µg/mL (highest concentration tested))
"MP09-R3-D03 in the rat IgG2b kappa format (antibody, V domains shown, Same VH and VL cloned into a rat IgG2b kappa format; also called MP09-R3-D03 rat IgG2b; MP09-R3-D3) VH: EVQLVESGGSLVKPGGSLRLSCAASGFTFSNYYMNWVRQAPGKGLEWISSISGSSRYIYYADFVKGRFTISRDNAKNSLYLQMNSLRAEDTAVYYCVRSSGSYFGNAMDVWGRGTLVTVSS VL: QSVLTQPASVSGSPGQSITISCAGTSSDVGGYYSVSWYQQHPGKAPKLMIYYDSSRPSGVSNRFSGSKSGNTASLTISGLQAEDEADYYCSSDTSYSTRVFGGGTKLAVL",0.99,–,no binding (tested: 75 µg/mL (highest concentration tested)),no binding (tested: 75 µg/mL (highest concentration tested)),–,–

# Further lines, with some results ahead:
EC50 [3] [nM],EC50 [6] [nM],Binder,binding result [1],binding result [2],binding result [4],binding result [5]
–,0.28,"MP08-R3-F08 in the human IgG1 lambda format (antibody, V domains shown, Whole human IgG1 lambda made in ExpiCHO cells; also called hMP08-R3-F08; MP08-R3-F08 human IgG1 clone; copies: 2 + 2) VH: EVQLVESGGSLVKPGGSLRLSCAASGFTFSNNAMNWVRQAPGKGLEWISDISGSSRYIGYADFVKGRFTISRDNAKNSLYLQMNSLRAEDTAVYYCVRSSNYYDYNADAMDVWGRGTLVTVSS VL: QSVLTQPASVSGSPGQSITISCAGTSSDVGGNSYVSWYQQHPGKAPKLMIYSDSSRPSGVSNRFSGSKSGNTASLTISGLQAEDEADYYCSSYTQYSTRVFGGGTKLAVLG",–,–,no binding (tested: 75 µg/mL (highest concentration tested)),no binding (tested: 75 µg/mL (highest concentration tested))
0.2,–,"MP08-R3-F08 in the rat IgG2b kappa format (antibody, V domains shown, Same VH and VL cloned into a rat IgG2b kappa format; also called MP08-R3-F08 rat IgG2b) VH: EVQLVESGGSLVKPGGSLRLSCAASGFTFSNNAMNWVRQAPGKGLEWISDISGSSRYIGYADFVKGRFTISRDNAKNSLYLQMNSLRAEDTAVYYCVRSSNYYDYNADAMDVWGRGTLVTVSS VL: QSVLTQPASVSGSPGQSITISCAGTSSDVGGNSYVSWYQQHPGKAPKLMIYSDSSRPSGVSNRFSGSKSGNTASLTISGLQAEDEADYYCSSYTQYSTRVFGGGTKLAVL",no binding (tested: 75 µg/mL (highest concentration tested)),no binding (tested: 75 µg/mL (highest concentration tested)),–,–

# Reference: patent US20250277036A1 (POLYGON THERAPEUTICS, published 2025)
